In patent US5739002A, “Method for reproducing in vitro the Proteolytic activity of the NS3 protease of hepatitis C virus (HCV)” (Istituto di Richerche di Biologia Molecolare P. Angeletti …, priority 1994, dated 1998):

How the values were obtained:
HCV NS3 serine protease [1] = target: T1, HCV NS3 serine protease (Hepatitis C virus (isolate BK), UniProt P26663); assay: Activation of HCV NS3 serine protease in an in vitro translation assay (rabbit reticulocyte extracts, NS5AB precursor substrate); format: biochemical
T1 construct: substrate NS5AB precursor
T1 sequence (P26663 1007-1615): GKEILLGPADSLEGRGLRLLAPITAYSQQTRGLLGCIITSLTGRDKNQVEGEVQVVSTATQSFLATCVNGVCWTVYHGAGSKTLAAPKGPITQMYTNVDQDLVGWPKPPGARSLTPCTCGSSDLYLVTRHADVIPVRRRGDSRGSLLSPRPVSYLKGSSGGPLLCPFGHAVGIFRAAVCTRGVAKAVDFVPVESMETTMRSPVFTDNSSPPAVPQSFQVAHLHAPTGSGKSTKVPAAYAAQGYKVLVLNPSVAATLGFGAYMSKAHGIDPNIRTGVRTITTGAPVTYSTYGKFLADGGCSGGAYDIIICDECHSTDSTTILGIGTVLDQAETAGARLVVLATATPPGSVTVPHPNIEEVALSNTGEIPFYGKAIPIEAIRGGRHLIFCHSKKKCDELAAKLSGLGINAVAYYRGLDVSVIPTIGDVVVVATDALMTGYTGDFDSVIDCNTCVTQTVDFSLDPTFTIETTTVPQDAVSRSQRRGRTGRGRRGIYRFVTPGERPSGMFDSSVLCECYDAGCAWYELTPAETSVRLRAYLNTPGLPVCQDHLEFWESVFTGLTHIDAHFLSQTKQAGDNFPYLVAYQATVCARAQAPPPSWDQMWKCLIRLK
Text: The plasmids described in FIG. 1 can also be used for in vitro synthesis of mRNA coding for the respective HCV proteins using the purified RNA polymerase enzyme of the phage T7 (Promega).
Generally the plasmids derived from pCite-1^R were linearized using suitable restriction enzymes and transcribed using the protocols supplied by the manufacturer (Promega). These synthetic mRNA, could later be used to synthesize the corresponding proteins in extracts of rabbit reticulocytes in the presence of canine pancreas microsomal membranes. The reticulocyte extracts, the canine pancreas microsomal membranes, like all the other material required, were purchased from Promega, which also supplied the instructions for the in vitro protein syntheses process described above.
Programming the in vitro translation mixture with mRNA transcribed from pCite(NS3) it is possible to observe synthesis of a protein with the expected molecular weight (68 kDa) containing the entire NS3 serine protease domain. The mRNA transcribed from pCite(NS5AB) guides the synthesis of a precursor of 115 kDa which contains NS5A and NS5B and is thus a substrate for the proteolytic activity associated with NS3.
This peptide was added to an in vitro translation mixture simultaneously programmed with the mRNAs transcribed from the plasmids pCite(NS3) and pCite(NS5AB).

HCV NS3 serine protease [2] = target: T1, HCV NS3 serine protease; assay: Activation of HCV NS3 serine protease in cultivated HeLa cells (vTF7-3 infection, plasmid cotransfection, immunoprecipitation); format: cell-based; details: NS4A expressed transiently in HeLa cells together with the NS3 serine protease domain; no cleavage without NS4A
[3] = target: T2, recombinant NS3 serine protease (Hepatitis C virus (isolate BK), UniProt P26663); assay: Assay of recombinant HCV NS3 serine protease purified from E. coli on a peptide substrate (NS4A/4B junction), HPLC; format: biochemical
T2 construct: NS4A/4B peptide substrate
T2 sequence (P26663 1027-1206): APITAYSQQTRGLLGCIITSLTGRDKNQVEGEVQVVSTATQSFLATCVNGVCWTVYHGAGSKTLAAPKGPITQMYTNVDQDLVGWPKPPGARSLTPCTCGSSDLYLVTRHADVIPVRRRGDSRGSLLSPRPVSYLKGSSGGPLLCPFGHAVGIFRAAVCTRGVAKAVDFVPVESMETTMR
Experimental: The recombinant NS3 serine protease produced according to the above procedure in E. coli could be assayed for activity by cleaving a substrate that provides detectable cleavage products. The signal is preferably detectable by colorimetric or fluorometric means. Methods such as HPLC and the like are also suitable.
For example, we used, as a substrate, synthetic peptides corresponding to the NS4A/4B junction of the HCV polyprotein.
The activity assay is performed by incubating 5-1000 μM substrate and 0.05-1 μM protease in buffer containing 25 mM Tris/HCl pH 7.5, 3 mM dithiothreitol, 0.5% (w/v) CHAPS and 10% (v/v) glycerol for 1-3 hours at 22° C. The reaction is stopped by addition of trifluoracetic acid to yield a final concentration of 0.1% (w/v).
The reaction products are then separated by HPLC on a C18 reverse phase column and quantitated according to their absorbance of the far UV light.

Row | Substance | serine protease activity of NS3 on a substrate containing NS5A and NS5B (HCV NS3 serine protease [1]; in vitro translation, protein sequence containing NS4A present in addition to the NS3 protease domain, no activity with NS3 domain alone) | activation of the proteolytic activity associated with NS3 (cleavage of the precursor encoded by pCite(NS4B5A)) (HCV NS3 serine protease [2]) | proteolytic activity of the NS3 serine protease domain on NS5AB substrate (HCV NS3 serine protease [1]; peptide added to in vitro translation mixture programmed with mRNAs from pCite(NS3) and pCite(NS5AB)) | stimulation of the proteolytic activity of the recombinant NS3 serine protease ([3]; increasing amounts of peptide, NS4A/4B junction peptide substrate, pH 7.5, 22° C., HPLC) | peptide to protease ratio at which maximal activity is reached ([3]; recombinant NS3 serine protease and synthetic peptide)
1 | NS4A: HCV non-structural hydrophobic protein of 6 kDa acting as cofactor of the NS3 serine protease | serine protease activity of NS3 becomes evident | can thus activate the proteolytic activity associated with NS3 | – | – | –
2 | SEQ ID NO:3: Synthetic peptide derived from the C-terminal portion of SEQ ID NO:2 (NS4A); carboxy terminal cysteine replaced with alpha-aminobutyric acid (Abu) | – | – | proteolytic cleavage of the substrate in the two products containing the proteins NS5A and NS5B | up to 20 fold | equimolar amounts
